Experimental data: patent US6864238

Biological target: Bovine brain α/β tubulin (bovine) (UniProt P81947)
Test: cell-based or functional assay

Chain of Bovine brain α/β tubulin (bovine) (P81947 whole entry, chain 1 of 2): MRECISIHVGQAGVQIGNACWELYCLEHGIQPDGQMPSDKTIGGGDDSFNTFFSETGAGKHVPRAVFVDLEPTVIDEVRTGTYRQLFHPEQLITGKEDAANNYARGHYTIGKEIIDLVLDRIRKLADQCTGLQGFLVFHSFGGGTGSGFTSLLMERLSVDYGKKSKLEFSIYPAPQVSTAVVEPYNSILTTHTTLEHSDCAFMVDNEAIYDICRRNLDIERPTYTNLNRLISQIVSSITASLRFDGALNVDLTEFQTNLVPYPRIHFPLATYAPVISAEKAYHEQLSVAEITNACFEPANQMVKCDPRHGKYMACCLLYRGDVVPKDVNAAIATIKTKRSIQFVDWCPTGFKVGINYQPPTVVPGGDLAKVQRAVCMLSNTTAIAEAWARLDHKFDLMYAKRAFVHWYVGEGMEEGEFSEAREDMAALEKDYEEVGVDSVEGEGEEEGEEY
Chain of Bovine brain α/β tubulin (bovine) (Q6B856 whole entry, chain 2 of 2, further chain): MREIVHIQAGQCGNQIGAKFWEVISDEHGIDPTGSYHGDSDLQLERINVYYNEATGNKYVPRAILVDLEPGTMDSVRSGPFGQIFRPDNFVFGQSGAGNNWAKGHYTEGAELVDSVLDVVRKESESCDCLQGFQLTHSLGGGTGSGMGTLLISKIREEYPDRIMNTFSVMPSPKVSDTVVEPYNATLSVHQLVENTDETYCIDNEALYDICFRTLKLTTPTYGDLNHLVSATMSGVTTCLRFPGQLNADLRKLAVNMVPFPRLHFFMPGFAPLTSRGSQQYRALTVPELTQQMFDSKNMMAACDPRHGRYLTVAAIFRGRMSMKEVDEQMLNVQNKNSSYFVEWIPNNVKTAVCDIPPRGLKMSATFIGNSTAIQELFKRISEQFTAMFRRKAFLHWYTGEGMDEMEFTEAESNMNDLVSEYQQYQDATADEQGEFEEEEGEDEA

distribution of tubulin in supernatant and pellet, in vitro microtubule sedimentation assay (15 µM tubulin): 40 µM
Substance: GST-PN2-2 (from UniProt Q9HC77 191-310)
